Results as given in PMC6222848, “Spatial Overlap of Claudin- and Phosphatidylinositol Phosphate-Binding Sites on the First PDZ Domain of Zonula Occludens 1 Studied by NMR” (Molecules : A Journal of Synthetic Chemistry and Natural …, 2018).

Experiments:
[1] = target: T1, mouse ZO-1(PDZ1) Arg28 Ala-substituted mutant (mouse, UniProt P39447 18-110, Arg28 Ala-substituted); test: SPR; BIACORE-3000; Trx-CLD3 peptide immobilized on a CM5 chip, PDZ domain as analyte (0 to 100 ug/mL), 20 uL/min; 10 mM HEPES pH 7.4, 150 mM NaCl, 3 mM EDTA, 0.005% Surfactant P20; KD by 'Affinity from steady-state'; no phytic acid; settings: both partners purified
T1 construct: zonula occludens 1 (ZO-1), mouse, first PDZ domain, residues 18-110, with Arg28 changed to Ala; Made by mutagenesis of the whole expression plasmid of ZO-1(PDZ1); no cleavage of GST is described for the mutants; also called Arg28 mutation; source: purified with glutathione-Sepharose, dialyzed
T1 sequence (looked up): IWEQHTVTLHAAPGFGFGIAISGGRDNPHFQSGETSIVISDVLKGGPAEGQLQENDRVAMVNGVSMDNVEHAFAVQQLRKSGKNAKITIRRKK

[2] = target: T2, GST-tagged mouse ZO-1(PDZ1) (residues 18–110) (mouse, UniProt P39447 18-110); test: as above; settings: both partners purified
T2 construct: zonula occludens 1 (ZO-1), mouse, first PDZ domain, residues 18-110; The methods say that the GST fusion proteins were used for the SPR analysis; also called first PDZ domain of zonula occludens 1; wild-type; source: E. coli BL21 (DE3), purified (glutathione-Sepharose FF), dialyzed
T2 sequence (looked up): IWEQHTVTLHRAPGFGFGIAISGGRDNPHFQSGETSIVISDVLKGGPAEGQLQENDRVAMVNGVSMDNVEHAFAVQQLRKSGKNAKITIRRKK

B1: His6-tagged thioredoxin (Trx) fusion protein of mouse CLD-3 C-terminus (Trx-CLD3, residues 210–219) (domain or fragment, UniProt Q9Z0G9 210-219, looked up)
chain: GTAYDRKDYV
notes: claudin-3 (CLD-3), mouse, C-terminus, residues 210-219; also called Trx-CLD3 peptide; CLD-3 peptide; source: E. coli BL21 (DE3), purified (Ni2+-chelating-Sepharose), dialyzed
- binding result [1]: binds
- Kd [2]: 0.17 µM
